Reference: publication PMC3431625 (The Journal of Biological Chemistry, 2012)

What was measured:
Collagen type I = Collagen type I (UniProt P02453;P02465); assay: ELISA
[1] = biological target: Mouse laminin isolated from Engelbreth-Holm-Swarm mouse sarcoma (mouse, UniProt P19137;P02469;P02468); assay: ELISA

Chain of Collagen type I (P02453 162-1217, chain 1 of 2): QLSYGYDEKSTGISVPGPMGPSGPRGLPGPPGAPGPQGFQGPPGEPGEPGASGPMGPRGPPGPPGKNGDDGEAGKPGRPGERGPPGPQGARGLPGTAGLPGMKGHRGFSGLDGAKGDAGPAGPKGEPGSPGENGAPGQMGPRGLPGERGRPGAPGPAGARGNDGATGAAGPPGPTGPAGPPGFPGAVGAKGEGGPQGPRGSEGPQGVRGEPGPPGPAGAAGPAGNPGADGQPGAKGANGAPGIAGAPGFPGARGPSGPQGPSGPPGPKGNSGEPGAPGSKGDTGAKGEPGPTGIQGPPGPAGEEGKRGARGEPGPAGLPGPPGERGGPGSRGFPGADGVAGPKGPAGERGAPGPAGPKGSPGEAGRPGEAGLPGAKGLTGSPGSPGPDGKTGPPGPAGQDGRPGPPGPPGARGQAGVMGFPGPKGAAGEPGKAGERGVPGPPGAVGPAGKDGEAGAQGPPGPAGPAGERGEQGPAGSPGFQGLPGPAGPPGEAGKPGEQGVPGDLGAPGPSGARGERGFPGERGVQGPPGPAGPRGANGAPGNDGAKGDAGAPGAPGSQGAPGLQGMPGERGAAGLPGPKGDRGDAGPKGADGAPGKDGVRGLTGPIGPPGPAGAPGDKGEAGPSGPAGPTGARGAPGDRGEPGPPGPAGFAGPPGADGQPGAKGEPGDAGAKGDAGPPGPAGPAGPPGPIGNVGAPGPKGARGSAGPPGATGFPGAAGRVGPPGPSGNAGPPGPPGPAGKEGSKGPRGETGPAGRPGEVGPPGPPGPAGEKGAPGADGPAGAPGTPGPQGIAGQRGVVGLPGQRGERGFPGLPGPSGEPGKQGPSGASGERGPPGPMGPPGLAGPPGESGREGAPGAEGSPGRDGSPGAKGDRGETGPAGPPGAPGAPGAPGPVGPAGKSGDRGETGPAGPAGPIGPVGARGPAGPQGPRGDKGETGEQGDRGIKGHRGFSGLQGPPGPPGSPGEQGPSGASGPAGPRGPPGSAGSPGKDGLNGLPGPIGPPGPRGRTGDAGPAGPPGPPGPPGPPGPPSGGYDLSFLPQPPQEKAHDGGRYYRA
Chain of Collagen type I (P02465 80-1117, chain 2 of 2): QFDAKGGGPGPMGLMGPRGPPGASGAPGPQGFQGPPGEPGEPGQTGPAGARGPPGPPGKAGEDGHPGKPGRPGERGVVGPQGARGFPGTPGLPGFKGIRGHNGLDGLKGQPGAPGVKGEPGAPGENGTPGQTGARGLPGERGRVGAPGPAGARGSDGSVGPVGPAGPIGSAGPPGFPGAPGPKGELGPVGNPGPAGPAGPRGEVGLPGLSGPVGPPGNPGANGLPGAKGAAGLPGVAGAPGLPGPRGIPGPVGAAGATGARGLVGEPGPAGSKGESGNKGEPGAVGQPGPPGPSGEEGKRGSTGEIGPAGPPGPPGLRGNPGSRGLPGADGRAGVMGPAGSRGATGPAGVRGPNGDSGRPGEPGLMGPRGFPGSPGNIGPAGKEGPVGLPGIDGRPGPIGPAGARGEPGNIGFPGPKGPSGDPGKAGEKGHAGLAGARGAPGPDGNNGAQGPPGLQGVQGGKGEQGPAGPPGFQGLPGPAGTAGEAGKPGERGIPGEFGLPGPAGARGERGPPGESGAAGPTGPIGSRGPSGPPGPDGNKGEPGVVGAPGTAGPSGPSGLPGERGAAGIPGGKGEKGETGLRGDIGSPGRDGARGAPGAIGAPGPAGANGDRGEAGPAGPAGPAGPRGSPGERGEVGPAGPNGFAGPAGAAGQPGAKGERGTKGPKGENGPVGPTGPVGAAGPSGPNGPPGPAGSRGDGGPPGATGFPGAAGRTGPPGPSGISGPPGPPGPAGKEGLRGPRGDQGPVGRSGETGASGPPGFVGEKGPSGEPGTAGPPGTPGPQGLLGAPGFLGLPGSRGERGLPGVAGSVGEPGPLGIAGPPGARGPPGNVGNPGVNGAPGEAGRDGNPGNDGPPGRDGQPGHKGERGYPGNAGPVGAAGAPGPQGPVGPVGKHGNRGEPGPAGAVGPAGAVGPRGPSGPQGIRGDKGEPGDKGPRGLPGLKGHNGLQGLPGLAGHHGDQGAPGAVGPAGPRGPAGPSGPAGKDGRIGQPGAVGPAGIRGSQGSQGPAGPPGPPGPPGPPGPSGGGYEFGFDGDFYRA

B1: Recombinant bovine opticin (natural protein)
chain: ASLSEEREGDPYAILHLGDYVLSLDNYDEVIDPSNYDELIDYGDQLPQVKGTSLASLTRTRFTQSTEAARTLPSNPTTARPPTLGLLAAPANHGLPTCLICVCLGSSVYCDDADLENIPPLPQTTAYLYARFNRISHIRAGDFKGLTKLKRIDLSGNSISSIDDKALRLLPALRDLILPENKLVALPTLPTSIEVLDVRMNRLQSSGIQPEAFRALEKLQFLYLADNLLDAIPPSLPLSLRSLHLQNNMIETMQRDAFCDAEEHRHTRRPLEDIRLDGNPINLSLFPSAYFCLPRLPTGRFV
B1 showed a Kd (Collagen type I) of 60 nM and a Kd [1] of 40 nM.
